According to publication PMC7835374 (2021):

Target: recombinant full-length hemagglutinin H6 (A/Taiwan/2/2013) (influenza A virus H6N1 (A/Taiwan/2/2013))
Experiment: BLI

B1: 3I14^D93N IgG1 (antibody, V domains shown)
VH: QVQLLESGGGVVQPGRSLRLSCAASGFTFSNYGMHWVRQAPGKGLEWVAIISFDGSKKYYANSVKGRSTISRDNSKNTLSLQMNSLGPEDTALYYCAKLPSPYYFDSRFVWVAASAFHFWGQGILVTVSS
VL: LTQPPSASGTPGQRVTISCSGSSSNIGGNTVHWFQQLPGTAPKLLIYTNSLRPSGVPDRFSGSKSGTSASLAISGLQSEDEADYYCAAWDNSLNGQVFGGGTKLTVL
  Kd: 0.4 nM
